Target: T1, NS5A 347-361 (Hepatitis C virus, UniProt P26664)
T1 chain: PKSPPVPPPRKKRTV
Experiment: fluorescence titration

B1: Bin1 SH3 (protein)
chain: LPPGFMFKVQAQHDYTATDTDELQLKAGDVVLVIPFQNPEEQDEGWLMGVKESDWNQHKELEKCRGVFPENFTERVP
Kd: 0.2 µM

Source: PMC4118443 (2014)
